Assay results reported in PMC7272049 (PLoS ONE, 2020).

B1: mB7-1 mIgG2a (Fc fusion, mouse, UniProt Q00609 38-246, looked up)
chain: VDEQLSKSVKDKVLLPCRYNSPHEDESEDRIYWQKHDKVVLSVIAGKLKVWPEYKNRTLYDNTTYSLIILGLVLSDRGTYSCVVQKKERGTYEVKHLALVKLSIKADFSTPNITESGNPSADTKRITCFASGGFPKPRFSWLENGRELPGINTTISQDPESELYTISSQLDFNTTRNHTIKCLIKYGDAHVSEDFTWEKPPEDPPDSKN
notes: mouse B7-1 (CD80); also called mB7-1 Ig-fusion; B7-1 Fc; source: small-scale purified recombinant protein
B2: mCD28 hIgG1 (Fc fusion, mouse, UniProt P31041 20-150, looked up)
chain: NKILVKQSPLLVVDSNEVSLSCRYSYNLLAKEFRASLYKGVNSDVEVCVGNGNFTYQPQFRSNAEFNCDGDFDNETVTFRLWNLHVNHTDIYFCKIEFMYPPPYLDNERSNGTIIHIKEKHLCHTQSSPKL
notes: mouse CD28; also called soluble mCD28 hIgG1
B3: mCD28 mIgG2a (Fc fusion, mouse, UniProt P31041 20-150, looked up)
chain: B2 chain
notes: mouse CD28

Key:
mPD-L1 Q214A mCherry = biological target: T1, mPD-L1 Q214A mCherry (mouse, UniProt Q9EP73 19-290, Q214A); test: flow cytometry on cells; HEK 293 cells expressing PD-L1 mCherry (WT or mutant) queried with protein A microbeads saturated with a 4:1 mixture of PD-1 or B7-1 Fc-fusion and FITC-Fc; no wash; normalised to wild type; conditions: one partner purified
T1 construct: mouse PD-L1; source: HEK 293, transfected, on cells; not shown: mCherry, C-terminal, kept
T1 sequence (Q9EP73 19-290 Q214A): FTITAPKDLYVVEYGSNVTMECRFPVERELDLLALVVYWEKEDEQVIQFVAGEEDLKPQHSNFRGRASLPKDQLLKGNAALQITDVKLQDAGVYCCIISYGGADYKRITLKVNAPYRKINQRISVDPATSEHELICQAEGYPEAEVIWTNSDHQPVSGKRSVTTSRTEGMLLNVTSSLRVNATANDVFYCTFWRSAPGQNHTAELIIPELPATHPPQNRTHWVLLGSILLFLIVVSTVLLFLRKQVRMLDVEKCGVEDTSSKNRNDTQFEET

mPD-L1 M188A mCherry = biological target: T2, mPD-L1 M188A mCherry (mouse, UniProt Q9EP73 19-290, M188A); test: as above; conditions: one partner purified
T2 construct: mouse PD-L1; source: HEK 293, transfected, on cells; not shown: mCherry, C-terminal, kept
T2 sequence (Q9EP73 19-290 M188A): as the sequence (Q9EP73 19-290 Q214A) above, with M170A, A196Q counted along it

mPD-L1 S142A mCherry = biological target: T3, mPD-L1 S142A mCherry (mouse, UniProt Q9EP73 19-290, S142A); test: as above; conditions: one partner purified
T3 construct: mouse PD-L1; source: HEK 293, transfected, on cells; not shown: mCherry, C-terminal, kept
T3 sequence (Q9EP73 19-290 S142A): as the sequence (Q9EP73 19-290 Q214A) above, with S124A, A196Q counted along it

mPD-L1 E163A mCherry = biological target: T4, mPD-L1 E163A mCherry (mouse, UniProt Q9EP73 19-290, E163A); test: as above; conditions: one partner purified
T4 construct: mouse PD-L1; source: HEK 293, transfected, on cells; not shown: mCherry, C-terminal, kept
T4 sequence (Q9EP73 19-290 E163A): as the sequence (Q9EP73 19-290 Q214A) above, with E145A, A196Q counted along it

mPD-L1 E163R mCherry = biological target: T5, mPD-L1 E163R mCherry (mouse, UniProt Q9EP73 19-290, E163R); test: as above; conditions: one partner purified
T5 construct: mouse PD-L1; source: HEK 293, transfected, on cells; not shown: mCherry, C-terminal, kept
T5 sequence (Q9EP73 19-290 E163R): as the sequence (Q9EP73 19-290 Q214A) above, with E145R, A196Q counted along it

mB7-1 mIgG2a = biological target: B1; test: bead-based flow cytometry competition; protein A beads saturated with mB7-1 mIgG2a; 20 nM mPD-L1 hIgG1 or mCD28 hIgG1 with increasing mIgG2a-fused competitor; anti-human Alexa 488; conditions: both partners purified

Row | Binder | percent of wild-type binding (mPD-L1 Q214A mCherry) | percent of wild-type binding (mPD-L1 M188A mCherry) | percent of wild-type binding (mPD-L1 S142A mCherry) | percent of wild-type binding (mPD-L1 E163A mCherry) | percent of wild-type binding (mPD-L1 E163R mCherry) | binding result (mB7-1 mIgG2a)
1 | B1 | ~50% | ~50% | ~50% | ~50% | ~50% | –
2 | B2 | – | – | – | – | – | binds
3 | B3 | – | – | – | – | – | binds
